Patent US20250215089A1 (HARBOUR BIOMED SHANGHAI, published 2025)

What was measured:
human CD40 [1] = target: T1, human CD40 (human, UniProt P25942 21-277); test: FACS, Raji cells
T1 construct: whole, on cells; also called hCD40; TNFRSF5
Procedure: (§1) The cells were incubated at 4° C. for 1 hours in the dark. After the incubation, the cells were rinsed twice by adding pre-chilled PBS at 100 μL/well, and centrifuged at 500 g at 4° C. for 5 minutes, and the supernatant was discarded. Then, a fluorescent secondary antibody (goat anti-human IgG (H+L) secondary antibody, Alexa Fluor® 488 conjugate, Invitrogen, #A11013, 1:1000 dilution) was added at 100 μL/well, and the cells were incubated at 4° C. for 30 minutes in the dark. The cells were washed twice with pre-chilled PBS at 200 μL/well, and centrifuged at 500 g at 4° C. for 5 minutes, and the supernatant was discarded. Finally, the cells were resuspended in pre-chilled PBS at 200 μL/well. The fluorescence signal values were read using a BD FACS CANTOII flow cytometer or ACEA NovoCyte flow cytometer, and the data were processed and analyzed using FlowJo v10 software (FlowJo, LLC).

human PD-L1 [2] = target: T2, human PD-L1 (human, UniProt Q9NZQ7 19-290); test: FACS, NCI-H226 cells
T2 construct: whole, on cells; also called hPD-L1; CD274
Procedure: (§2) Specifically, the cells expressing PD-L1 were digested and resuspended in PBS buffer containing 2% BSA. The cells were adjusted to a cell density of 1×10⁶ cells/mL, respectively. The cells were seeded in a 96-well V-bottom plate (Corning, #3894) at 100 μL/well, and the antibody to be tested at 2×final concentration with 4-fold concentration gradient dilution was then added at 100 μL/well. The cells were incubated at 4° C. for 2 hours in the dark. After the incubation, the cells were rinsed twice by adding pre-chilled PBS containing 2% BSA at 100 μL/well, and centrifuged at 500 g at 4° C. for 5 minutes, and the supernatant was discarded. […] The cells were washed twice by adding pre-chilled PBS containing 2% BSA at 100 µL/well, and centrifuged at 500 g at 4° C. for 5 minutes, and the supernatant was discarded. Finally, the cells were resuspended in pre-chilled PBS buffer containing 2% BSA at 200 μL/well. The fluorescence signal values were read using a BD FACS CANTOII flow cytometer or ACEA NovoCyte flow cytometer, and the data were processed and analyzed using FlowJo v10 software (FlowJo, LLC).

human PD-L1 [3] = target: T2, human PD-L1; test: cell-based or functional assay
human CD40 [4] = target: T1, human CD40; test: cell-based or functional assay
human CD40 [5] = target: T1, human CD40; test: FACS, CHO-K1/hCD40 cells
Procedure: as §1

human PD-L1 [6] = target: T2, human PD-L1; test: FACS, CHO-K1/hPD-L1 cells
Procedure: as §2

cynomolgus monkey CD40 = target: T3, cynomolgus monkey CD40 (cynomolgus monkey); test: FACS, CHO-K1/cyCD40 cells
T3 construct: whole, on cells; also called cyCD40
Procedure: as §1

cynomolgus monkey PD-L1 = target: T4, cynomolgus monkey PD-L1 (cynomolgus monkey); test: FACS, CHO-K1/cyPD-L1 cells
T4 construct: whole, on cells; also called cyPD-L1
Procedure: as §2

T2 sequence (Q9NZQ7 19-290): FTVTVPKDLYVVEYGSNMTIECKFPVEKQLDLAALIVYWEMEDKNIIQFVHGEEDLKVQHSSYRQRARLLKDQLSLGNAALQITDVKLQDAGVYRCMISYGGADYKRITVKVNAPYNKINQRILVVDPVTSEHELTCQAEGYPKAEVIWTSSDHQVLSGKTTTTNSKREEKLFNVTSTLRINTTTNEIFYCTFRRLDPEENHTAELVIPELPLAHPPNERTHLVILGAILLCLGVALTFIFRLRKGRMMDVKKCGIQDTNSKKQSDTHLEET
T1 sequence (P25942 21-277): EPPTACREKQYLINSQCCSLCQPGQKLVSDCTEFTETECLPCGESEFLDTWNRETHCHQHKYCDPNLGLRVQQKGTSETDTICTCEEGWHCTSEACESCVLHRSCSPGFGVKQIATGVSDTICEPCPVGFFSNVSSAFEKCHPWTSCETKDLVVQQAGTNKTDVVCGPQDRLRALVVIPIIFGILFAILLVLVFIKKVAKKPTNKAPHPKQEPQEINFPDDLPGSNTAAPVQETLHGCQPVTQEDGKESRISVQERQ

EC50 (human CD40 [1]) [nM] | Maximum MFI (human CD40 [1]) [MFI] | EC50 (human PD-L1 [2]) [nM] | Maximum MFI (human PD-L1 [2]) [MFI] | EC50, Jurkat-NFAT-hPD1 reporter (human PD-L1 [3]) [nM] | Maximum (RLU), Jurkat-NFAT-hPD1 reporter (human PD-L1 [3]) [RLU] | EC50, HEK293-hCD40-NFκB reporter, + CHO-K1 (human CD40 [4]) [nM] | EC50, HEK293-hCD40-NFκB reporter, + CHO-K1/hPD-L1 (human CD40 [4]) [nM] | Maximum (RLU), HEK293-hCD40-NFκB reporter, + CHO-K1 (human CD40 [4]) [RLU] | Maximum (RLU), HEK293-hCD40-NFκB reporter, + CHO-K1/hPD-L1 (human CD40 [4]) [RLU] | EC50 (human CD40 [5]) [nM] | Maximum MFI (human CD40 [5]) [MFI] | EC50 (human PD-L1 [6]) [nM] | Maximum MFI (human PD-L1 [6]) [MFI] | EC50 (cynomolgus monkey CD40) [nM] | Maximum MFI (cynomolgus monkey CD40) [MFI] | EC50 (cynomolgus monkey PD-L1) [nM] | Maximum MFI (cynomolgus monkey PD-L1) [MFI] | Binder
1.24 | 7360 | 0.389 | 870 | 0.359 | 4920 | 0.144 | 0.0106 | 24500 | 31400 | 2.53 | 18900 | 0.96 | 19600 | 3.37 | 76200 | 0.622 | 4540 | PR006919 (bispecific antibody, human IgG1, kappa, VH of PR006246 (PD-L1) - GS_5 - heavy chain of CD40 IgG PR006496; human IgG1 L234A/L235A/G237A; also called PD-L1×CD40) heavy: QVQLVESGGGVVQPGMSLRLSCAASGFDFSSYGMYWVRQAPGKGQEWVASIRYTGTEKHYADSVKGRFTISRDNSKNTLYLEMNSLRVEDTAVYYCAKNRAIFGVIPDDSDIRGQGTMVTVSSGGGGSQVQLVQSGAEVKKPGASVKVSCKASGYTFAGYYMYWVRQAPGQGLEWMGWINPDSGAPTYAQKFQGRVTMTRDTSISTAYMELSRLRSDDTAVYYCAREKIYYGSGNYYPSFDYWGQGTLVTVSSASTKGPSVFPLAPSSKSTSGGTAALGCLVKDYFPEPVTVSWNSGALTSGVHTFPAVLQSSGLYSLSSVVTVPSSSLGTQTYICNVNHKPSNTKVDKKVEPKSCDKTHTCPPCPAPEAAGAPSVFLFPPKPKDTLMISRTPEVTCVVVDVSHEDPEVKFNWYVDGVEVHNAKTKPREEQYNSTYRVVSVLTVLHQDWLNGKEYKCKVSNKALPAPIEKTISKAKGQPREPQVYTLPPSREEMTKNQVSLTCLVKGFYPSDIAVEWESNGQPENNYKTTPPVLDSDGSFFLYSKLTVDKSRWQQGNVFSCSVMHEALHNHYTQKSLSLSPGK light: DIQLTQSPSFLSASVGDRVTITCRASQGISSYLAWYQQKPGKAPKLLIYAASTLQSGVPSRFSGSGSGTEFTLTISSLQPEDFATYYCQQLFSYPWTFGQGTKVEIKRTVAAPSVFIFPPSDEQLKSGTASVVCLLNNFYPREAKVQWKVDNALQSGNSQESVTEQDSKDSTYSLSSTLTLSKADYEKHKVYACEVTHQGLSSPVTKSFNRGEC
1.3 | 6610 | 0.215 | 928 | 0.35 | 4640 | 0.425 | 0.0362 | 4000 | 4900 | 2.36 | 16000 | 1.14 | 20700 | 3.76 | 75400 | 0.754 | 4930 | PR007151 (bispecific antibody, human IgG1, kappa, VH of PR005878 (PD-L1) - GS_5 - heavy chain of CD40 IgG PR006504; human IgG1 L234A/L235A/G237A; also called PD-L1×CD40) heavy: QVQLVESGGGVVQPGMSLRLSCAASGFTFSSYGMYWVRQAPGKGQEWVASIRYTGTEKHYADSVKGRFTISRDNSKNTLYLEMNSLRVEDTAVYYCAKNRALFGVIPDDSDIRGQGTMVTVSSGGGGSQVQLVQSGAEVKKPGASVKVSCKASGYTFAGYYMYWVRQAPGQGLEWMGWINPDSGAPTYAQKFQGRVTMTRDTSISTAYMELSRLRSDDTAVYYCAREKIYYGSGNYYPSFDYWGQGTLVTVSSASTKGPSVFPLAPSSKSTSGGTAALGCLVKDYFPEPVTVSWNSGALTSGVHTFPAVLQSSGLYSLSSVVTVPSSSLGTQTYICNVNHKPSNTKVDKKVEPKSCDKTHTCPPCPAPEAAGAPSVFLFPPKPKDTLMISRTPEVTCVVVDVSHEDPEVKFNWYVDGVEVHNAKTKPREEQYNSTYRVVSVLTVLHQDWLNGKEYKCKVSNKALPAPIEKTISKAKGQPREPQVYTLPPSREEMTKNQVSLTCLVKGFYPSDIAVEWESNGQPENNYKTTPPVLDSDGSFFLYSKLTVDKSRWQQGNVFSCSVMHEALHNHYTQKSLSLSPGK light: DIQLTQSPSFLSASVGDRVTITCRASQGISSYLAWYQQKPGKAPKLLIYAASTLQSGVPSRFSGSGSGTEFTLTISSLQPEDFATYYCQQLVSYPWTFGQGTKVEIKRTVAAPSVFIFPPSDEQLKSGTASVVCLLNNFYPREAKVQWKVDNALQSGNSQESVTEQDSKDSTYSLSSTLTLSKADYEKHKVYACEVTHQGLSSPVTKSFNRGEC
1.36 | 6670 | 0.313 | 862 | 0.175 | 2830 | 0.136 | 0.0138 | 26900 | 31700 | 2.67 | 15400 | 1.15 | 20500 | 15.6 | 93200 | 0.779 | 4870 | PR007070 (bispecific antibody, human IgG1, kappa, VH of PR005878 (PD-L1) - GS_5 - heavy chain of CD40 IgG PR006495; human IgG1 L234A/L235A/G237A; also called PD-L1×CD40) heavy: QVQLVESGGGVVQPGMSLRLSCAASGFTFSSYGMYWVRQAPGKGQEWVASIRYTGTEKHYADSVKGRFTISRDNSKNTLYLEMNSLRVEDTAVYYCAKNRALFGVIPDDSDIRGQGTMVTVSSGGGGSQVQLVQSGAEVKKPGASVKVSCKASGYTFAGYYMYWVRQAPGQGLEWMGWINPDSGAPTYAQKFQGRVTMTRDTSISTAYMELSRLRSDDTAVYYCAREKIYYGSGNYYPSFDYWGQGTLVTVSSASTKGPSVFPLAPSSKSTSGGTAALGCLVKDYFPEPVTVSWNSGALTSGVHTFPAVLQSSGLYSLSSVVTVPSSSLGTQTYICNVNHKPSNTKVDKKVEPKSCDKTHTCPPCPAPEAAGAPSVFLFPPKPKDTLMISRTPEVTCVVVDVSHEDPEVKFNWYVDGVEVHNAKTKPREEQYNSTYRVVSVLTVLHQDWLNGKEYKCKVSNKALPAPIEKTISKAKGQPREPQVYTLPPSREEMTKNQVSLTCLVKGFYPSDIAVEWESNGQPENNYKTTPPVLDSDGSFFLYSKLTVDKSRWQQGNVFSCSVMHEALHNHYTQKSLSLSPGK light: DIQLTQSPSFLSASVGDRVTITCRASQGISSYLAWYQQKPGKAPKLLIYAASTLQSGVPSRFSGSGSGTEFTLTISSLQPEDFATYYCQQLASYPWTFGQGTKVEIKRTVAAPSVFIFPPSDEQLKSGTASVVCLLNNFYPREAKVQWKVDNALQSGNSQESVTEQDSKDSTYSLSSTLTLSKADYEKHKVYACEVTHQGLSSPVTKSFNRGEC
1.38 | 7430 | 0.42 | 869 | 0.181 | 2810 | 0.266 | 0.0571 | 156000 | 286000 | 1.65 | 16300 | 1.08 | 19600 | 2.8 | 65700 | 0.68 | 4550 | PR007268 (bispecific antibody, human IgG1, kappa, VH of PR006246 (PD-L1) - GS_5 - heavy chain of CD40 IgG PR006497; human IgG1 L234A/L235A/G237A; also called PD-L1×CD40) heavy: QVQLVESGGGVVQPGMSLRLSCAASGFDFSSYGMYWVRQAPGKGQEWVASIRYTGTEKHYADSVKGRFTISRDNSKNTLYLEMNSLRVEDTAVYYCAKNRAIFGVIPDDSDIRGQGTMVTVSSGGGGSQVQLVQSGAEVKKPGASVKVSCKASGYTFAGYYMYWVRQAPGQGLEWMGWINPDSGAPTYAQKFQGRVTMTRDTSISTAYMELSRLRSDDTAVYYCAREKIYYGSGNYYPSFDYWGQGTLVTVSSASTKGPSVFPLAPSSKSTSGGTAALGCLVKDYFPEPVTVSWNSGALTSGVHTFPAVLQSSGLYSLSSVVTVPSSSLGTQTYICNVNHKPSNTKVDKKVEPKSCDKTHTCPPCPAPEAAGAPSVFLFPPKPKDTLMISRTPEVTCVVVDVSHEDPEVKFNWYVDGVEVHNAKTKPREEQYNSTYRVVSVLTVLHQDWLNGKEYKCKVSNKALPAPIEKTISKAKGQPREPQVYTLPPSREEMTKNQVSLTCLVKGFYPSDIAVEWESNGQPENNYKTTPPVLDSDGSFFLYSKLTVDKSRWQQGNVFSCSVMHEALHNHYTQKSLSLSPGK light: DIQLTQSPSFLSASVGDRVTITCRASQGISSYLAWYQQKPGKAPKLLIYAASTLQSGVPSRFSGSGSGTEFTLTISSLQPEDFATYYCQQLYSYPWTFGQGTKVEIKRTVAAPSVFIFPPSDEQLKSGTASVVCLLNNFYPREAKVQWKVDNALQSGNSQESVTEQDSKDSTYSLSSTLTLSKADYEKHKVYACEVTHQGLSSPVTKSFNRGEC
